Biological target: MG10 (Gln213 to Ala231 of the human Mpl amino acid sequence) and GST fusion protein (human) (UniProt P40238)
Assay: SPR, Biacore 3000, MG10-GST amine-coupled on CM5, sc(Fv)2 at about 5-150 nM as analyte, bivalent analyte model

Binder	Kd [nM]
humanized anti-human Mpl antibody hVB22B u2-wz4 sc(Fv)2 (bulk, before separation of the structural isomers) (scFv, from another filing) QVQLVQSGPEVKKPGASVKVSCKASGYTFTNSWMNWVRQRPGKGLEWIGRIYPGDGETIYNGKFRVRVTITADESTSTAYMQLSSLRSEDTAVYYCARGYDDYSFAYWGQGTTVTVSSGGGGSGGGGSGGGGSDIVMTQSPLSLPVTPGEPASISCRSSKSLLHSNGNTYLYWFLQKPGQSPQLLIYRMSNLASGVPDRFSGSGSGTDFTLKISRVEAEDVGVYYCMQHIEYPFTFGQGTKLEIKGGGGSGGGGSGGGGSQVQLVQSGPEVKKPGASVKVSCKASGYTFTNSWMNWVRQRPGKGLEWIGRIYPGDGETIYNGKFRVRVTITADESTSTAYMQLSSLRSEDTAVYYCARGYDDYSFAYWGQGTTVTVSSGGGGSGGGGSGGGGSDIVMTQSPLSLPVTPGEPASISCRSSKSLLHSNGNTYLYWFLQKPGQSPQLLIYRMSNLASGVPDRFSGSGSGTDFTLKISRVEAEDVGVYYCMQHIEYPFTFGQGTKLEIK	10.2
hVB22B u2-wz4 sc(Fv)2 peak2 (single chain diabody type structural isomer) (scFv, from another filing) QVQLVQSGPEVKKPGASVKVSCKASGYTFTNSWMNWVRQRPGKGLEWIGRIYPGDGETIYNGKFRVRVTITADESTSTAYMQLSSLRSEDTAVYYCARGYDDYSFAYWGQGTTVTVSSGGGGSGGGGSGGGGSDIVMTQSPLSLPVTPGEPASISCRSSKSLLHSNGNTYLYWFLQKPGQSPQLLIYRMSNLASGVPDRFSGSGSGTDFTLKISRVEAEDVGVYYCMQHIEYPFTFGQGTKLEIKGGGGSGGGGSGGGGSQVQLVQSGPEVKKPGASVKVSCKASGYTFTNSWMNWVRQRPGKGLEWIGRIYPGDGETIYNGKFRVRVTITADESTSTAYMQLSSLRSEDTAVYYCARGYDDYSFAYWGQGTTVTVSSGGGGSGGGGSGGGGSDIVMTQSPLSLPVTPGEPASISCRSSKSLLHSNGNTYLYWFLQKPGQSPQLLIYRMSNLASGVPDRFSGSGSGTDFTLKISRVEAEDVGVYYCMQHIEYPFTFGQGTKLEIK	9.92
hVB22B u2-wz4 sc(Fv)2 peak1 (bivalent scFv type structural isomer) (scFv, from another filing) QVQLVQSGPEVKKPGASVKVSCKASGYTFTNSWMNWVRQRPGKGLEWIGRIYPGDGETIYNGKFRVRVTITADESTSTAYMQLSSLRSEDTAVYYCARGYDDYSFAYWGQGTTVTVSSGGGGSGGGGSGGGGSDIVMTQSPLSLPVTPGEPASISCRSSKSLLHSNGNTYLYWFLQKPGQSPQLLIYRMSNLASGVPDRFSGSGSGTDFTLKISRVEAEDVGVYYCMQHIEYPFTFGQGTKLEIKGGGGSGGGGSGGGGSQVQLVQSGPEVKKPGASVKVSCKASGYTFTNSWMNWVRQRPGKGLEWIGRIYPGDGETIYNGKFRVRVTITADESTSTAYMQLSSLRSEDTAVYYCARGYDDYSFAYWGQGTTVTVSSGGGGSGGGGSGGGGSDIVMTQSPLSLPVTPGEPASISCRSSKSLLHSNGNTYLYWFLQKPGQSPQLLIYRMSNLASGVPDRFSGSGSGTDFTLKISRVEAEDVGVYYCMQHIEYPFTFGQGTKLEIK	12.4

Source: patent WO2006132352A1
